Entries after “also recorded” stand apart in the source; their conditions may differ. Marks after values point to notes of the source that are not given here.
B1: del344-357: EBNA2 with glycine-arginine repeats removed by deletion of amino acids 344-357 (protein)
chain: MPTFYLALHGGQTYHLIVDTDSLGNPSLSVIPSNPYQEQLSDTPLIPLTIFVGENTGVPPPLPPPPPPPPPPPPPPPPPPPPPPPPPPSPPPPPPPPPPPQRRDAWTQEPSPLDRDPLGYDVGHGPLASAMRMLWMANYIVRQSRGDRGLILPQGPQTAPQARLVQPHVPPLRPTAPTILSPLSQPRLTPPQPLMMPPRPTPPTPLPPATLTVPPRPTRPTTLPPTPLLTVLQRPTELQPTPSPPRMHLPVLHVPDQSMHPLTHQSTPNDPDSPEPRSPTVFYNIPPMPLPPSQLPPPAAPAQPPPGVINDQQLHHLPSGPPWWPPICDPPQPSKTQGQSRGQGKSRDKQRKPGGPWRPEPNTSSPSMPELSPVLGLHQGQGAGDSPTPGPSNAAPVCRNSHTATPNVSPIHEPESHNSPEAPILFPDDWYPPSIDPADLDESWDYIFETTESPSSDEDYVEGPSKRPRPSIQ
B2: WW323SR (CR6): EBNA2 with tryptophans 323 and 324 in CR6 changed to SR (protein)
chain: MPTFYLALHGGQTYHLIVDTDSLGNPSLSVIPSNPYQEQLSDTPLIPLTIFVGENTGVPPPLPPPPPPPPPPPPPPPPPPPPPPPPPPSPPPPPPPPPPPQRRDAWTQEPSPLDRDPLGYDVGHGPLASAMRMLWMANYIVRQSRGDRGLILPQGPQTAPQARLVQPHVPPLRPTAPTILSPLSQPRLTPPQPLMMPPRPTPPTPLPPATLTVPPRPTRPTTLPPTPLLTVLQRPTELQPTPSPPRMHLPVLHVPDQSMHPLTHQSTPNDPDSPEPRSPTVFYNIPPMPLPPSQLPPPAAPAQPPPGVINDQQLHHLPSGPPSRPPICDPPQPSKTQGQSRGQSRGRGRGRGRGRGKGKSRDKQRKPGGPWRPEPNTSSPSMPELSPVLGLHQGQGAGDSPTPGPSNAAPVCRNSHTATPNVSPIHEPESHNSPEAPILFPDDWYPPSIDPADLDESWDYIFETTESPSSDEDYVEGPSKRPRPSIQ
B3: GP320SR (CR6): EBNA2 with two non-hydrophobic residues GP at 320 in CR6 changed to SR (protein)
chain: MPTFYLALHGGQTYHLIVDTDSLGNPSLSVIPSNPYQEQLSDTPLIPLTIFVGENTGVPPPLPPPPPPPPPPPPPPPPPPPPPPPPPPSPPPPPPPPPPPQRRDAWTQEPSPLDRDPLGYDVGHGPLASAMRMLWMANYIVRQSRGDRGLILPQGPQTAPQARLVQPHVPPLRPTAPTILSPLSQPRLTPPQPLMMPPRPTPPTPLPPATLTVPPRPTRPTTLPPTPLLTVLQRPTELQPTPSPPRMHLPVLHVPDQSMHPLTHQSTPNDPDSPEPRSPTVFYNIPPMPLPPSQLPPPAAPAQPPPGVINDQQLHHLPSSRPWWPPICDPPQPSKTQGQSRGQSRGRGRGRGRGRGKGKSRDKQRKPGGPWRPEPNTSSPSMPELSPVLGLHQGQGAGDSPTPGPSNAAPVCRNSHTATPNVSPIHEPESHNSPEAPILFPDDWYPPSIDPADLDESWDYIFETTESPSSDEDYVEGPSKRPRPSIQ
B4: PI326SR (CR6): EBNA2 with PI at 326 in CR6 changed to SR (protein)
chain: MPTFYLALHGGQTYHLIVDTDSLGNPSLSVIPSNPYQEQLSDTPLIPLTIFVGENTGVPPPLPPPPPPPPPPPPPPPPPPPPPPPPPPSPPPPPPPPPPPQRRDAWTQEPSPLDRDPLGYDVGHGPLASAMRMLWMANYIVRQSRGDRGLILPQGPQTAPQARLVQPHVPPLRPTAPTILSPLSQPRLTPPQPLMMPPRPTPPTPLPPATLTVPPRPTRPTTLPPTPLLTVLQRPTELQPTPSPPRMHLPVLHVPDQSMHPLTHQSTPNDPDSPEPRSPTVFYNIPPMPLPPSQLPPPAAPAQPPPGVINDQQLHHLPSGPPWWPSRCDPPQPSKTQGQSRGQSRGRGRGRGRGRGKGKSRDKQRKPGGPWRPEPNTSSPSMPELSPVLGLHQGQGAGDSPTPGPSNAAPVCRNSHTATPNVSPIHEPESHNSPEAPILFPDDWYPPSIDPADLDESWDYIFETTESPSSDEDYVEGPSKRPRPSIQ
B5: type B EBNA2 comprising amino acids 216-392: homologous CBF1 interaction domain of human type B EBNA2, in vitro translated (protein)
chain: GHQLSLPPHPPPHQSTPHCSSDSTGLPPPPTSYSIPSMTLSPEPLPPPAAPAHPLPGVIYDQQALPPTPGPPWWPPVRDPTPTTQTPPTNTKQGPDQGQGRGRWRGRGRSKGRGRMHKLPEPRRPGPDTSSPSMPQLSPVVSLHQGQGPENSPTPGPSTAGPVCRVTPSATPDISPI

How the values were obtained:
[1] = test system: EBV latency C promoter (Cp-CAT); assay: Cp-CAT transactivation by EBNA2 effector DNAs cotransfected in DG75 cells; format: cell-based, Epstein-Barr virus; conditions: for % Transactivation: relative EBNA2 transactivation of the Cp, at DNA concentrations giving 50% acetylation for wild-type EBNA2, mutations in full-length EBNA2; for transactivation of Cp-CAT, dose-response, in words: 0-2.0 μg effector DNA, 2 μg target
Procedure: FIGS. 4A-4B are graphs that depict μg effector versus % acetylation for transactivation in DG75 cells of a Cp-CAT construction (Ling et al. (1993b), supra) cotransfected at 2 μg with increasing amounts (i.e., 0, 0.25, 0.5, 1.0 and 2.0 μg) of the indicated EBNA2 effector DNAs. Immunoblot analysis confirmed the equivalent expression of the different EBNA2 effector constructions in transfected cells.
FIGS. 7A-7B are graphs that depict μg effector versus fold-induction for cotransfection assays comparing the ability of type A EBNA2 and type B EBNA2 to transactivate expression from Cp-CAT (FIG. 7A) and CD23p-CAT (FIG. 7B) (Ling et al. (1994), supra) in DG75 cells. The target plasmids were transfected at a constant amount (2 μg) and the effector DNAs at increasing amounts of 0, 0.25, 0.5, 1.0 and 2.0 μg.
In order to correlate the effect of the mutations on CBF1 interaction measured in the in vitro binding assays with the effects on CBF1 interaction in vivo in cultured cells, the point mutations and the glycine-arginine deletion were incorporated into full-length EBNA2 proteins which were used to study EBNA2 targeting in transactivation assays. The mutant proteins were synthesized in equal abundance in transfected cells as assessed by Western blot analysis. FIGS. 4A and 4B compare the ability of wild-type and mutant EBNA2 proteins to transactivate expression from the EBV latency C promoter in a dose-response assay (Ling et al. (1993b), supra).

CBF1/RBPJk = biological target: T1, CBF1/RBPJk (Homo sapiens, UniProt Q06330); assay: EMSA of EBNA2/CBF1 complex formation with in vitro translated EBNA2 peptides; format: binding; conditions: for behaviour in EMSA (competition for CBF1 complex, formation of supershifted EBNA2/CBF1 complex): equimolar in vitro translated peptides, Cp CBF1 binding site probe
T1 construct: EMSA using CBF1 purified by heparin-agarose chromatography; endogenous in cells; host or cells: CA46 cells (fractionated extract, heparin-agarose)
T1 sequence (Q06330 whole entry): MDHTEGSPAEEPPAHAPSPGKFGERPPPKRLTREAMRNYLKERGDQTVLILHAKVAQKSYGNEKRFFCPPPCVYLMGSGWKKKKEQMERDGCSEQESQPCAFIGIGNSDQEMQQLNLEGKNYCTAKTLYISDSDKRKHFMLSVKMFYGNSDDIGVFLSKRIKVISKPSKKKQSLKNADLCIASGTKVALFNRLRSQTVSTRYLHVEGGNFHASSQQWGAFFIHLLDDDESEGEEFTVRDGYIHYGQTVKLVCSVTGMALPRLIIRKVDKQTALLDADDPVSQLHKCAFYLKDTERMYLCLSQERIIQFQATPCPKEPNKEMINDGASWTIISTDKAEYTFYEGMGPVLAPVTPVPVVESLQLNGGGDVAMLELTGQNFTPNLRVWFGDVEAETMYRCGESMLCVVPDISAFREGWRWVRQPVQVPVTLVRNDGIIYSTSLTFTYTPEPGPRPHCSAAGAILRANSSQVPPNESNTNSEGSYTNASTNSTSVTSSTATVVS
Description: FIG. 3 is an autoradiogram that depicts the effect of mutations on the ability of an EBNA2 (i.e., E2) peptide comprising amino acids 252-425 to interact with CBF1/RBPJk: probe (lane 1); E2 only (lane 2); lysate (lane 3); CBF1 (lane 4); CBF1 and lysate (lane 5); CBF1 and E2 252-425 (lane 6); CBF1 and del376-425 (lane 7); CBF1 and del343-425 (lane 8); CBF1 and del252-366 (lane 9); CBF1 and del252-309, del398-425 (lane 10); CBF1 and del344-357 (lane 11); CBF1 and II307SR (CR5) (lane 12); CBF1 and GP320SR (CR6) (lane 13); CBF1 and WW323SR (CR6) (lane 14); CBF1 and PI326SR (CR6) (lane 15); CBF1 and SR360VD (PKC) (lane 16); and CBF1 and LGL389SRT (CR7) (lane 17). Results of an EMSA using CBF1 purified by heparin-agarose chromatography and a 30-base pair oligonucleotide probe containing the Cp CBF1 binding site (Ling et al. (1993a), supra) are shown. The wild-type EBNA2 and mutant EBNA2 peptides spanning amino acids 252-425 were in vitro transcribed and translated, and equimolar amounts were added to the binding reactions. Addition of unprogrammed reticulocyte lysate to the CBF1 extract (+lysate) produced a minor bandshift that migrated in the range of the E2/CBF1 complex. The EBNA2/CBF1 complexes (i.e., E2/CBF1 complexes) vary in mobility depending on the size of the added EBNA2 peptide.
FIG. 6 is an EMSA that compares the ability of type A EBNA2 (i.e., EBNA2 comprising amino acids 252-425) and the homologous domains of type B (i.e., EBNA2 comprising amino acids 216-392) and HVP EBNA2 (i.e., HBP EBNA2 comprising amino acids 288-470) to form complexes with CBF1/RBPJk. The EBNA2 peptides and CBF1/RPBPJk were prepared by in vitro transcription and translation. EBNA2 peptides were added with two-fold increases in amount (black triangles) to a binding mixture containing a constant amount of CBF1/RBPJk and a 30-base pair Cp CBF1 binding site probe. Symbols: P, probe only; R, reticulolysate.
The relative positions of the various functional domains the EBNA2 protein are depicted in FIG. 1. To define the amino acids required for interaction with CBF1, various synthetic peptides comprising the promoter targeting domain (i.e., the CBF1/RBPJk interaction domain) were constructed. The truncated and mutated peptides diagrammed in FIG. 2 were synthesized by in vitro transcription-translation, and were tested for their ability to form complexes with CBF1 that could be detected in an electrophoretic mobility shift assay (EMSA) (Ling et al., J. Virol., 69, 1944-1950 (1995)). The expressed peptides were tested using a fractionated extract of EBV negative lymphoblastoid CA46 cells (American Type Culture Collection, Rockville, Md.). The peptides were labeled with ^35S-methionine, and their integrity was confirmed by sodium dodecylsulfate sulfate-polyacrylamide gel electrophoresis (SDS-PAGE). To ensure that equal amounts of the EBNA2 peptides were added to each binding reaction mixture, the SDS-PAGE bands were quantitated using a Molecular Dynamics Phosphorimager, and the volume of the samples was adjusted on the basis of peptide size and the number of methionine residues.

[2] = linear range of the assay, 0.5 μg effector DNA

Row | Molecule | transactivation of Cp-CAT relative to wild-type EBNA2 [1, 2] [%] | % Transactivation [1] | % Complex formation (CBF1/RBPJk; EBNA2/CBF1 supershifted complex relative to wild-type EBNA2(252-425), phosphoimager, reticulocyte lysate background subtracted) [%] | behaviour in EMSA (competition for CBF1 complex, formation of supershifted EBNA2/CBF1 complex) (CBF1/RBPJk) | behaviour in EMSA (competition for CBF1 complex, formation of supershifted EBNA2/CBF1 complex) (CBF1/RBPJk; listed as glycine-arginine deletion) | transactivation of Cp-CAT, dose-response, in words [1] | transactivation of Cp-CAT relative to wild-type EBNA2 ([1]; highest levels of effector DNA) [%] | amount of peptide required to convert all the CBF1 to the supershifted complex, versus type A EBNA2 (CBF1/RBPJk; in vitro translated CBF1/RBPJk, two-fold increases of peptide)
1 | B1 | 150 | 150% | 100 | did not negatively affect EBNA2/CBF1 complex formation | did not negatively affect complex formation in the EMSA |  |  | 
2 | B2 |  | 0% |  | did not compete for the CBF1 complex and produced little or no EBNA2/CBF1 supershifted complex |  | inability of this mutant to transactivate the Cp even at high doses of effector |  | 
3 | B3 |  | 120% |  | had no effect on the behavior of the peptide in the EMSA |  | mirrored that of wild-type EBNA2 |  | 
4 | B4 | 2 | 2^c % |  | did not compete for the CBF1 complex and produced little or no EBNA2/CBF1 supershifted complex; also recorded: severely impaired the ability of the peptide to form a complex with CBF1 in an EMSA |  |  | 20 | 
5 | B5 |  |  |  | bound CBF1 comparably to type A EBNA2 |  |  |  | two-fold more
